The source of these data is patent US20140221271A1.

Where two headings read alike, the source gives them in different places.

Experiment [1] deals with Kv1.3 K+ ion channel. The experiment can be described thus: cell-based or functional assay.
The target in experiment [2] is Kv1.3 K+ ion channel. The experiment can be described thus: cell-based or functional assay. The source holds these as a separate data set.

In turn, “ShK-186 ((phospho-Tyr)-AEEA-ShK-NH2) (peptide)” displayed an IC50, reduction in peak whole-cell Kv1.3 current at 40 mV (patch-clamp) with Kv1.3 K+ ion channel [1] of 69 pM.

With RSCIDTIPKSRCTAFQCKHSMKYRLSFCRKTCGTC (modifications not checked) [ShK-221-gadolinium (DOTA-conjugate of ShK-198 coordinated with gadolinium)], in the experiment with Kv1.3 K+ ion channel [2], the IC50, reduction in peak whole-cell Kv1.3 current at 40 mV (patch-clamp) was determined as 58.2 pM.

For RSCIDTIPKSRCTAFQCKHSMKYRLSFCRKTCGTC (modifications not checked) [ShK-221-indium (DOTA-conjugate of ShK-198 coordinated with indium)], the IC50, reduction in peak whole-cell Kv1.3 current at 40 mV (patch-clamp) in the experiment with Kv1.3 K+ ion channel [2] worked out at 63.8 pM.
